The target of this data set is T1, FucR (Cj0480c), IclR-type regulator (Campylobacter jejuni NCTC 11168) (UniProt Q0PB33).
T1 sequence: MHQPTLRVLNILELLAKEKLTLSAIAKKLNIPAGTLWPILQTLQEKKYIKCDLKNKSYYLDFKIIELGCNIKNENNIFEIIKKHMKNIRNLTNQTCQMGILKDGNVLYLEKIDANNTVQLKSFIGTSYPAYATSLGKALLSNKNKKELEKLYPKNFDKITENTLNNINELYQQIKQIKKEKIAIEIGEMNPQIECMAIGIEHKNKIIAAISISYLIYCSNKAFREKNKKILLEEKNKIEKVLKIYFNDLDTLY
Description: EMSA. The settings on record: 50 mM Tris-HCl, 150 mM KCl, 10 mM MgCl2, pH 7.4, room temperature, 1 h; 4-20% gradient PAGE. In general terms: In EMSA bound probe runs differently from free probe, usually more slowly.

Turning to “GCTGATGCATATTGTCTTTATCCTTATTTTATTTTTATAAATTTTAGCATATTTTTTACTTTTAGTAACATAAAATCATAATTTTTATTATTTATTAATTTTAATATTTTTTTTGTAAAAATTGGCAGTTAATAAGAATAAAATACGAATTTTTACCAAGTTAACAGCTTGATTTTTTTACAAATATTTTGTTATATTTTTTGTATATAAATATATTTTTGTATATACGAAAGGAAAAAAATGGGAATTTTAAAAGGAACTTTACCGGCTTTACTTAC (double strand) [PR2 (fucose operon) promoter fragment]”, the binding entry was “binds”.

(Values after PMC12566272.)
